Laboratory results taken from PMC7610992 (Journal of molecular biology, 2006).

T1: RNA helicase B (RhlB), full-length helicase (E. coli, UniProt P0A8J8 1-421)
T1 sequence (looked up): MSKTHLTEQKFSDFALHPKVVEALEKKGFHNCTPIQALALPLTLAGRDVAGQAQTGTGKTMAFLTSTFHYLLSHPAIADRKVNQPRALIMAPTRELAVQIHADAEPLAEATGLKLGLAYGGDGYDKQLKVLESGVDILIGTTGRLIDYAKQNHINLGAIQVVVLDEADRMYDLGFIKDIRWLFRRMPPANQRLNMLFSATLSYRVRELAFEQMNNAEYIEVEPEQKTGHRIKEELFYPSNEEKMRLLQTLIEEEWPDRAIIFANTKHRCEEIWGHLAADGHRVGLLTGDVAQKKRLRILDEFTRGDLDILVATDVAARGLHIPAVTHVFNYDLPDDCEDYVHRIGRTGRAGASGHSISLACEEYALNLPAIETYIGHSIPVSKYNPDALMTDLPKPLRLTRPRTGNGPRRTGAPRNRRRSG

B1: RNase E (628-843) (domain or fragment, E. coli, UniProt P21513 628-843, looked up)
chain: ERTEGSDNREENRRNRRQAQQQTAETRESRQQAEVTEKARTADEQQAPRRERSRRRNDDKRQAQQEAKALNVEEQSVQETEQEERVRPVQPRRKQRQLNQKVRYEQSVAEEAVVAPVVEETVAAEPIVQEAPAPRTELVKVPLPVVAQTAPEQQEENNADNRDNGGMPRRSRRSPRHLRVSGQRRRRYRDERYPTQSPMPLTVACASPELASGKVW

How the values were obtained:
[1] = target: T1, RNA helicase B (RhlB), full-length …; test: limited proteolysis with native gel and mass spectrometry
[2] = target: B1; test: SEC + cross-linking + native MS

Binder | binding result [1] | stoichiometry N [2]
B1 | binds | –
RhlB-CTD, carboxy-terminal domain of RhlB helicase (domain or fragment, E. coli) MRIKEELFYPSNEEKMRLLQTLIEEEWPDRAIIFANTKHRCEEIWGHLAADGHRVGLLTGDVAQKKRLRILDEFTRGDLDILVATDVAARGLHIPAVTHVFNYDLPDDCEDYVHRIGRTGRAGASGHSISLACEEYALNLPAIETYIGHSIPVSKYNPDALMTDLPKPLRLTRPRTGNGPRRTGAPRNRRRSG | – | 1 RhlB-CTD per RNase E (628-843)
